Data from patent publication US20240398973A1, “ENGINEERED ANTIBODY COMPOUNDS AND CONJUGATES THEREOF” (Eli Lilly and Company, priority 2017, published 2024).
Like-named read-outs stand apart in the source and are kept apart here. Where no end group is shown, it is not given here.

Experiments:
[1] = biological target: formyl peptide receptor 1 (FPR1) on primary human polymorphonuclear neutrophils (human) (UniProt P21462); assay: cell-based or functional assay
[2] = biological target: formyl peptide receptor 1 (FPR1) on primary human polymorphonuclear neutrophils (human) (UniProt P21462); assay: cell-based or functional assay; remark: listed apart in the source
[3] = tested on: human primary PMNs; assay: PMN reactive oxygen species (ROS) production, luminol-amplified chemiluminescence; assay type: cell-based; settings: relative to 10 uM fMLF, AUC 5 minutes (Table 8a)
Protocol: Production of ROS by human primary PMNs is measured using luminol-amplified chemiluminescence. Following isolation, PMNs are suspended at 1×10^6 cells/ml in HBSS containing calcium and magnesium (Gibco #14025-092) supplemented with 0.25% human serum albumin (Gemini Bio producst #800-124) and 50 uM Luminol (SigmaAldrich #123072-2.5G). 100 μl of cell suspension (1×10^5 total cells) is then distributed into each well of a 96-well plate suitable for fluorescence measurement (Greiner #655098) and temperature equilibrated to 37° C. for 5 minutes. Following equilibration, 10× solution of antibody conjugate is applied to the wells, achieving a 1× final concentration.
Immediately after the addition of antibody conjugate, chemiluminescence signal is recorded in a luminometer maintained at 37° C. with 0.01 seconds dwell time per well, 20 seconds total time between sequential plate readings and 45 minutes total run time (PerkinElmer EnVision Multilabel Plate Reader).

[4] = tested on: primary human polymorphonuclear neutrophil (PMN); assay: PMN chemotaxis (transwell, modified Boyden chamber); assay type: cell-based; settings: for Relative Migration (PMN migration): relative to 10 nM fMLF (Table 4a)
Protocol: Chemotaxis is measured by observing primary human polymorphonuclear neutrophil (PMN) migration across transwell membranes (Corning #3415) towards antibody conjugates in a modified Boyden chamber assay. Approximately 2-4×10^5 cells from neutrophil-enriched preparations are seeded in upper transwell chambers on membranes with 3.0 um pores. The lower transwell chambers contain solutions of buffer alone and fMLF (N-formyl-Met-Leu-Phe peptide as positive control) and experimental antibody bioconjugates. […] Cell numbers are determined using standard curves. All data are transformed to percent relative to the maximal fMLF response for each individual experiment.

“Emibetuzumab-G4(PAA)-fMLFK-HC-378C (antibody)” was tested, and the PMN ROS production at 1 nM (percent relative to 1000 nM fMLF) [1] was 25.8%, the PMN ROS production at 2 nM (percent relative to 1000 nM fMLF) [1] was 27.7% and the PMN ROS production at 3.9 nM (percent relative to 1000 nM fMLF) [1] was 28.2%. It also gave a PMN ROS production at 7.8 nM (percent relative to 1000 nM fMLF) [1] of 27.3%, a PMN ROS production at 15.6 nM (percent relative to 1000 nM fMLF) [1] of 29.6% and a PMN ROS production at 31.3 nM (percent relative to 1000 nM fMLF) [1] of 24.5%. For the same substance, the PMN ROS production at 62.5 nM (percent relative to 1000 nM fMLF) [1] was 23.4%, the PMN ROS production at 125 nM (percent relative to 1000 nM fMLF) [1] was 23.5% and the PMN ROS production at 250 nM (percent relative to 1000 nM fMLF) [1] was 23.9%. The PMN ROS production at 500 nM (percent relative to 1000 nM fMLF) [1] was 38.3%, the PMN ROS production at 1000 nM (percent relative to 1000 nM fMLF) [1] was 48.9% and the PMN ROS production at 1 nM (percent relative to 1000 nM fMLF) [2] was 0.9%. It also gave a PMN ROS production at 3 nM (percent relative to 1000 nM fMLF) [2] of 1.8%, a PMN ROS production at 12 nM (percent relative to 1000 nM fMLF) [2] of 0.9% and a PMN ROS production at 30 nM (percent relative to 1000 nM fMLF) [2] of 1.2%. The PMN ROS production at 100 nM (percent relative to 1000 nM fMLF) [2] was 1%, the PMN ROS production at 300 nM (percent relative to 1000 nM fMLF) [2] was 2.4% and the PMN ROS production at 1000 nM (percent relative to 1000 nM fMLF) [2] was 2.8%.
“Emibetuzumab-G4(PAA)-fMLFK-HC-124C-162C-378C (antibody)” showed a PMN ROS production at 1 nM (percent relative to 1000 nM fMLF) [2] of 1.2%, a PMN ROS production at 3 nM (percent relative to 1000 nM fMLF) [2] of 6.1% and a PMN ROS production at 12 nM (percent relative to 1000 nM fMLF) [2] of 17.8%. The PMN ROS production at 30 nM (percent relative to 1000 nM fMLF) [2] was 38.4%, the PMN ROS production at 100 nM (percent relative to 1000 nM fMLF) [2] was 52.7% and the PMN ROS production at 300 nM (percent relative to 1000 nM fMLF) [2] was 54.2%. It also gave a PMN ROS production at 1000 nM (percent relative to 1000 nM fMLF) [2] of 42.3%.
For “Emibetuzumab-G4-fMLFK-HC-124C-157C-378C (antibody)”, the PMN ROS production at 1 nM (percent relative to 1000 nM fMLF) [2] was 1.7%, the PMN ROS production at 3 nM (percent relative to 1000 nM fMLF) [2] was 11.9% and the PMN ROS production at 12 nM (percent relative to 1000 nM fMLF) [2] was 26.9%. It also gave a PMN ROS production at 30 nM (percent relative to 1000 nM fMLF) [2] of 50%, a PMN ROS production at 100 nM (percent relative to 1000 nM fMLF) [2] of 63.6% and a PMN ROS production at 300 nM (percent relative to 1000 nM fMLF) [2] of 58.7%. For the same substance, the PMN ROS production at 1000 nM (percent relative to 1000 nM fMLF) [2] was 51.8%.
In the case of “H-Met-Leu-Phe-Lys (Mal-PEG12-OH (H-MLFK; not fully specified (residue 4)) [Peptide-'844]”, the “ROS Production by PMNs” value ([3]; 1 pM) is reported as 7.4 percentage, the “ROS Production by PMNs” value ([3]; 10 pM) is reported as 7.5 percentage and the “ROS Production by PMNs” value ([3]; 100 pM) is reported as 7.5 percentage. The “ROS Production by PMNs” value ([3]; 1 nM) was 8.4 percentage, the “ROS Production by PMNs” value ([3]; 10 nM) was 7.8 percentage and the “ROS Production by PMNs” value ([3]; 100 nM) was 8.2 percentage. For the same substance, the “ROS Production by PMNs” value ([3]; 1 μM) was 8.7 percentage, the “ROS Production by PMNs” value ([3]; 10 μM) was 23.5 percentage and the “concentration at which PMN migration is maximally induced” value [4] was 1 µM. The “Relative Migration (PMN migration)” value ([4]; 1 pM) was 1.4%, the “Relative Migration (PMN migration)” value ([4]; 10 pM) was 4.1% and the “Relative Migration (PMN migration)” value ([4]; 100 pM) was 0.4%. For the same substance, the “Relative Migration (PMN migration)” value ([4]; 1 nM) was 11.1%, the “Relative Migration (PMN migration)” value ([4]; 10 nM) was 2.9% and the “Relative Migration (PMN migration)” value ([4]; 100 nM) was 20.4%. For the same substance, the “Relative Migration (PMN migration)” value ([4]; 1 uM) was 114.2%, the “Relative Migration (PMN migration)” value ([4]; 10 uM) was 110.4% and the “fold less potent at inducing PMN migration than Peptide-'183” value ([4]; dose response differences) was 1000 fold.
Substance “Emibetuzumab-G4(PAA)-fMLFK-HC-124C-378C (antibody)” has a PMN ROS production at 1 nM (percent relative to 1000 nM fMLF) [1] of 27.4%, a PMN ROS production at 2 nM (percent relative to 1000 nM fMLF) [1] of 27.4% and a PMN ROS production at 3.9 nM (percent relative to 1000 nM fMLF) [1] of 26.5%. For the same substance, the PMN ROS production at 7.8 nM (percent relative to 1000 nM fMLF) [1] was 27.6%, the PMN ROS production at 15.6 nM (percent relative to 1000 nM fMLF) [1] was 28.3% and the PMN ROS production at 31.3 nM (percent relative to 1000 nM fMLF) [1] was 27.9%. It also gave a PMN ROS production at 62.5 nM (percent relative to 1000 nM fMLF) [1] of 27.7%, a PMN ROS production at 125 nM (percent relative to 1000 nM fMLF) [1] of 24.7% and a PMN ROS production at 250 nM (percent relative to 1000 nM fMLF) [1] of 29%. The PMN ROS production at 500 nM (percent relative to 1000 nM fMLF) [1] was 53.6%, the PMN ROS production at 1000 nM (percent relative to 1000 nM fMLF) [1] was 62.2% and the PMN ROS production at 1 nM (percent relative to 1000 nM fMLF) [2] was 0.6%. For the same substance, the PMN ROS production at 3 nM (percent relative to 1000 nM fMLF) [2] was 0.8%, the PMN ROS production at 12 nM (percent relative to 1000 nM fMLF) [2] was 0.9% and the PMN ROS production at 30 nM (percent relative to 1000 nM fMLF) [2] was 1.8%. The PMN ROS production at 100 nM (percent relative to 1000 nM fMLF) [2] was 3.4%, the PMN ROS production at 300 nM (percent relative to 1000 nM fMLF) [2] was 9.1% and the PMN ROS production at 1000 nM (percent relative to 1000 nM fMLF) [2] was 25.3%.
